Here are results for three molecules from patent publication US20210079071A1 (published 2021).

The target of assay [1] is T1, BODIPY-labeled staphylocoagulase SC (S7C)(1-325) (Staphylococcus aureus, UniProt P17855 27-351).
T1 sequence: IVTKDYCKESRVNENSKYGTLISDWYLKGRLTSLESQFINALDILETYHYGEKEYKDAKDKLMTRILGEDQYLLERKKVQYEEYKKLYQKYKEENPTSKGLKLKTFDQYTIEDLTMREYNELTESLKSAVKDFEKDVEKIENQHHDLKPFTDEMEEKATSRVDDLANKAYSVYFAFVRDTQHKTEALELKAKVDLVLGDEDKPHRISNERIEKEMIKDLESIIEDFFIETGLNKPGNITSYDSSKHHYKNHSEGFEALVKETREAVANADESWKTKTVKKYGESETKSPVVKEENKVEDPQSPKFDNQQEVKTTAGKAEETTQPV
Briefly: fluorescence titration of BODIPY-SC(S7C)(1-325) with GMA-2105.

The target of assay [2] is T2, SC-(1-325), unlabeled (Staphylococcus aureus, UniProt P17855 27-351).
T2 sequence: T1 sequence with C7S
The assay is described as follows: Western blot of recombinant proteins; by the text, primary antibody at 10 µg/mL, HRP anti-mouse IgG, chemiluminescence. Background: Immunoblotting shows a protein as a band on a membrane.
Source text: The elaborated proteins were transferred to PVDF membrane for western blot analysis to probe the specificity and cross-reactivity of the monoclonal antibodies targeting the critical N-termini of either SC or vWbp. […] Following primary antibody treatment, blots were washed and probed with horseradish peroxidase-labeled rabbit anti-mouse IgG that lacked the constant region and then imaged for chemiluminescence substrate oxidation using a Fuji-Films LAS1000. The blot was stripped between primary antibody challenges. […] To accomplish this, the blot was probed with the both the SC and vWbp neutralizing antibodies and then stained for total mouse IgG content using an anti-mouse IgG (H+L)-FITC polyclonal antibody.

The target in assay [3] is T3, vWbp-(1-474) (Staphylococcus aureus).
T3 chain: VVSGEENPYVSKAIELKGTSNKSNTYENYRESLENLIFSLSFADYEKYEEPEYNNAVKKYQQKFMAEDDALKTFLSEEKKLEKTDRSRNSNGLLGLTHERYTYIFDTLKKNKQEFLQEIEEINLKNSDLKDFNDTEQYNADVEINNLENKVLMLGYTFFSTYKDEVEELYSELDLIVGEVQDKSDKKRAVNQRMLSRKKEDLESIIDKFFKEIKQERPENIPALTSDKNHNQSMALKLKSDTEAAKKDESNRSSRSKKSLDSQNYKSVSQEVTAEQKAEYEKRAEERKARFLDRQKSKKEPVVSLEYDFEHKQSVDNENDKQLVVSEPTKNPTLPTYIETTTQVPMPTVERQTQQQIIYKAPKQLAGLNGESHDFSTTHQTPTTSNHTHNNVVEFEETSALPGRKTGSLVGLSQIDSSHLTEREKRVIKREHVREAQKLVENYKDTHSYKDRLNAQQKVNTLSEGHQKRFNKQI
Briefly: Western blot of recombinant proteins, probed with GMA-2105.

The target of assay [4] is T4, vWbp-(1-263) (Staphylococcus aureus).
T4 chain: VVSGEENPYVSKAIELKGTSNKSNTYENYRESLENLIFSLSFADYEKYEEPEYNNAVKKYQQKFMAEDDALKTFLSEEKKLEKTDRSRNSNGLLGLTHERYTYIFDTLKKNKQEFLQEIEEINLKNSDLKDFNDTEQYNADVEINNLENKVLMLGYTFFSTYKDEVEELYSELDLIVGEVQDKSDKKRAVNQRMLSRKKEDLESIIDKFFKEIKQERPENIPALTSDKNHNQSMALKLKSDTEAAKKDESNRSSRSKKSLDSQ
The assay is described as above.

The target of assay [5] is T1, BODIPY-labeled staphylocoagulase SC …. Briefly: equilibrium titration in solution, increase in BODIPY fluorescence, quadratic binding equation.
The target is the same in assay [6]. The assay is described as follows: fit of the fluorescence titrations; row 'Probe SC(1-246) S7C-BodipyFL'.
Assay [7] concerns the target Mutated Peptide Ala 8 & 9 (Staphylococcus aureus). The assay is described as follows: solid phase competitive inhibition ELISA. Background: ELISA stands for enzyme-linked immunosorbent assay.
Assay [8] concerns the target Mutated Peptide Ala 8 (Staphylococcus aureus). Briefly: solid phase competitive inhibition ELISA.
The target in assay [9] is Mutated Peptide Ala 9 (Staphylococcus aureus). The assay is described as follows: solid phase competitive inhibition ELISA.
The target of assay [10] is T5, Staphylocoagulase fragment SC(1-246), unlabeled (Staphylococcus aureus, UniProt P17855 27-272).
T5 sequence: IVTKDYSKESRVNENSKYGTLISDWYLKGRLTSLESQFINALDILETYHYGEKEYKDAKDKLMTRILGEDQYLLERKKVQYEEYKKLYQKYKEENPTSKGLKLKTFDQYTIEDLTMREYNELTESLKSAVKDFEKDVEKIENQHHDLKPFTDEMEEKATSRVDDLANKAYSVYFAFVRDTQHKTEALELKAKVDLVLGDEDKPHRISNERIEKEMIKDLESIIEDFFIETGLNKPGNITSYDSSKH
The assay is described as follows: competitive displacement of BODIPY-labeled staphylocoagulase from GMA-2105 in solution, fluorescence.

For assay [11], the target named is T1, BODIPY-labeled staphylocoagulase SC …. Briefly: equilibrium titration in solution, increase in BODIPY fluorescence.
The target of assay [12] is T5, Staphylocoagulase fragment SC(1-246), ….
For assay [13], the target named is T1, BODIPY-labeled staphylocoagulase SC ….
Assay [14] has the same target. The assay is described as follows: fluorescence titration of BODIPY-labeled SC(1-325) with chimeric GMA-2105.
Assay [15] has as its target T4, vWbp-(1-263). Briefly: ELISA: purified GMA-2500 on the preparation 'vWbp 1-263 022109, RIF 0540E', A490.
The target of assay [16] is vWbp peptide vWbp(1-12) conjugated to ovalbumin (Staphylococcus aureus). Briefly: ELISA: purified GMA-2500 on vWbp peptide-ovalbumin, A490.
The target of assay [17] is T4, vWbp-(1-263). Briefly: ELISA: purified GMA-2500 on the preparation 'vWbp 1-263 WT 011113, RIF0540D', A490.
Assay [18] addresses vWbp peptide vWbp(1-12), […], unconjugated (Staphylococcus aureus). The assay is described as follows: ELISA, unconjugated peptide.

Numbering of substitutions follows the chain as printed. Read-outs that look alike come from different tables or passages of the source.

B1: GMA-2105 murine anti-staphylocoagulase monoclonal antibody (antibody, V domains shown)
VH: EVKLEESGGGLVQPGGSMKLSCAASGFTFSDAWMDWVRQSPEKGLEWVAEIRTKANNHATYYAESVKGRFTISRDDSKSSVYLQMNSLRAEDTGIYYCTNVYYGNNDVKDYWGQGTSVTVSP
VL: DIVMTQSQKFMSTSVGDRVSVTCKASQNVDIYVAWYQQKPGQSPKALIYSASYRFSGVPDRFTGSGSGTDFTLSISNVQSEDLAEYFCQQYNNYPYTFGGGTKLEIKR
notes: also called 2A1.5H4.B7; anti-SC Ab
A word on the Kd: it is the free concentration of one partner at which half of the binding sites on the other are occupied at equilibrium, for simple one-to-one binding. Read a low Kd as a tighter complex. In the case of B1, the results for the stoichiometry in assay [1] and in [11] were 2 mol staphylocoagulase/mol GMA-2105 and 1.6 mol BODIPY-SC/mol GMA-2105, respectively. Moreover, the binding result in assay [2] is “binds”; in assay [3] it was “no binding (tested: 10 µg/mL (from the text))”; in assay [4], “no binding (tested: 10 µg/mL (from the text))”; in assay [7], “binds”; in [8], “binds”; in assay [9], “binds”. For the same molecule, the Kd in assay [5] was 2 nM; in assay [6], 1.09 nM; in assay [10], 4 nM; in assay [12], 0.71 nM; in [13], 0.99 nM. Also, the “Stoichiometry (mol mAb / mol probe)” value in assay [6] was found to be 0.99 mol mAb / mol probe. Besides, in assay [12], the “Stoichiometry (mol mAb / mol wild type)” value stood at 1.2 mol mAb / mol wild type.

B2: Chimeric GMA-2105 (mouse variable regions on human constant regions) (antibody, V domains shown)
VH: B1 VH
VL: B1 VL
In the case of B2, in assay [6], the affinity, expressed as Kd, was 0.79 nM and the “Stoichiometry (mol mAb / mol probe)” value worked out at 0.94 mol mAb / mol probe. The stoichiometry in [14] is 2 mol staphylocoagulase/mol chimeric antibody. For the same molecule, in assay [12], the Kd stood at 0.75 nM and the “Stoichiometry (mol mAb / mol wild type)” value worked out at 1.35 mol mAb / mol wild type.

B3: GMA-2500 murine anti-vWbp monoclonal antibody (antibody, V domains shown)
VH: EVQLQQSGTVLARPGASVKMSCKTSGYSFTSYWIHWVKQRPGQGLEWIGAISPGNSDTNYNQNFKGKAKLTAVTSASTAYMELSSLTTEDSAVYYCATGSHYWGQGTTLSVSS
VL: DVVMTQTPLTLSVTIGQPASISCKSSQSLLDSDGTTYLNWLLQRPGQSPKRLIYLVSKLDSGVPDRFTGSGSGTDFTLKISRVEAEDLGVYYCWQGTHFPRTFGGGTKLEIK
notes: also called 10C9.D1.B6
For orientation: EC50 (read off the curve) means the concentration at which the effect is half-maximal. Lower therefore signals greater potency. Take B3: the “EC50 (read off the curve)” value in [15], in assay [16] and in [17] was about 0.1 µg/mL throughout. Also, the binding result in assay [18] was “binds”.
